Target: T1, NMDARs (Rattus norvegicus, UniProt Q00959+Q00960)
T1 construct: TRPM2 plasmid a gift 17928; 17924; 17925; host or cells: HEK293T
Experiment: NMDAR currents in HEK-293T cells transfected with NMDARs and TRPM2 (whole cell recording)
Type: cell-based, human
Settings: 10 μM peptide overnight; 10 μM NMDA, -80 mV
Description: FIGS. 5G and 5H show the effects of TAT-EE3 on NMDAR currents in HEK-293T cells transfected with NMDARs and TRPM2. Transfected cells were treated with 10 μM TAT-EE3 or TAT-SC for overnight. FIG. 5G is representative NMDAR currents elicited at −80 mV by exposing to 10 μM NMDA for about 2 to 4 s.
were ordered from GenScript Biotech, and dissolved in PBS to make a stock concentration at 10 mM. HEK-293T cells or isolated neurons were treated with TAT-SC or TAT-EE3 at a concentration of 10 μM for at least 8 h prior to use. Mice were injected with TAT-SC or TAT-EE3 intraperitoneally (ip) at a dose of 100 nmol/kg.
Whole cell currents were recorded using an Axopatch 200B amplifier. Data were digitized at 10 or 20 kHz and digitally filtered offline at 1 kHz. Patch electrodes were pulled from borosilicate glass and fire-polished to a resistance of ˜3 MΩ when filled with internal solutions. Series resistance (Rs) was compensated up to 90% to reduce series resistance errors to <5 mV. Cells in which Rs was >10 MΩ were discarded (Du, J., Xie, J., and Yue, L. (2009). Modulation of TRPM2 by acidic pH and the underlying mechanisms for pH sensitivity. J Gen Physiol 134, 471-88).
For heterologous expression, transfected HEK-293 cells were identified by GFP fluorescence. […]

T1 sequence (Q00959 23-1464, other chains not shown): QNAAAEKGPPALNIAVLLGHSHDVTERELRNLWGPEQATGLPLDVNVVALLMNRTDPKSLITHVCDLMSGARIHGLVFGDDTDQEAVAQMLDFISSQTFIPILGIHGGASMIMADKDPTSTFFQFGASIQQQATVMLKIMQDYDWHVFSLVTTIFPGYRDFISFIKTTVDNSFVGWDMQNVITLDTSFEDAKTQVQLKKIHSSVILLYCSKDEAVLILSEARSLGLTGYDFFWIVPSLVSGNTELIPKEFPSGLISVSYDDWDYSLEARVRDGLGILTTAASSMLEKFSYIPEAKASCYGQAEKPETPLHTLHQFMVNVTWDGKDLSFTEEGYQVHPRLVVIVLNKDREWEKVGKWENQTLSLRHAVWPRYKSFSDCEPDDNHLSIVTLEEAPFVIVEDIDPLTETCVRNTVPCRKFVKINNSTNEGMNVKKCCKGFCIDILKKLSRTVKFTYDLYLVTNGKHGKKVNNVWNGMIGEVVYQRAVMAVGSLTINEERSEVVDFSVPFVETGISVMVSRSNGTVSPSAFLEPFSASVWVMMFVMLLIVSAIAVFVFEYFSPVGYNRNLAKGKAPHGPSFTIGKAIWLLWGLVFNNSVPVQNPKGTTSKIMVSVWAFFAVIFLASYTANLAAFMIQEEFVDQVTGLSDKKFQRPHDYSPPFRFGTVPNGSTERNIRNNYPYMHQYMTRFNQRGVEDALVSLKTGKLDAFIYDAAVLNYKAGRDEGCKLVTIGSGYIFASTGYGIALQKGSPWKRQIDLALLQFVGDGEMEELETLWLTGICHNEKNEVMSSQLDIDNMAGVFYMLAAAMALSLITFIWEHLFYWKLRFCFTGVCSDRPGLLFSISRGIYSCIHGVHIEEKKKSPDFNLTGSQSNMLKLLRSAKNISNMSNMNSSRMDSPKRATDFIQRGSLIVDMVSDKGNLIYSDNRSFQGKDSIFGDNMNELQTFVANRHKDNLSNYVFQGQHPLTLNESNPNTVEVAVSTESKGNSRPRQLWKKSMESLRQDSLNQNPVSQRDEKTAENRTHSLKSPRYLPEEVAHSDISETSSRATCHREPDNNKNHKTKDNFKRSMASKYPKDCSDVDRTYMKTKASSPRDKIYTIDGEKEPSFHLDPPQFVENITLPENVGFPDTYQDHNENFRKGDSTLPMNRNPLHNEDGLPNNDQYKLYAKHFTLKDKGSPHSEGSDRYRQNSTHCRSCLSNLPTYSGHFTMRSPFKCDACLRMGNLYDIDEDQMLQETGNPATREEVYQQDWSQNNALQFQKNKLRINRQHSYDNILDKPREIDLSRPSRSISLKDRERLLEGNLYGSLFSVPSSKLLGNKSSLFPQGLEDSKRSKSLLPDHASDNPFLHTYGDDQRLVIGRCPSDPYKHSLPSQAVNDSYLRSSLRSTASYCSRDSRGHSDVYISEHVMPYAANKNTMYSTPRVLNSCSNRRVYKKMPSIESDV
T1 sequence (Q00960 27-1482, other chains not shown): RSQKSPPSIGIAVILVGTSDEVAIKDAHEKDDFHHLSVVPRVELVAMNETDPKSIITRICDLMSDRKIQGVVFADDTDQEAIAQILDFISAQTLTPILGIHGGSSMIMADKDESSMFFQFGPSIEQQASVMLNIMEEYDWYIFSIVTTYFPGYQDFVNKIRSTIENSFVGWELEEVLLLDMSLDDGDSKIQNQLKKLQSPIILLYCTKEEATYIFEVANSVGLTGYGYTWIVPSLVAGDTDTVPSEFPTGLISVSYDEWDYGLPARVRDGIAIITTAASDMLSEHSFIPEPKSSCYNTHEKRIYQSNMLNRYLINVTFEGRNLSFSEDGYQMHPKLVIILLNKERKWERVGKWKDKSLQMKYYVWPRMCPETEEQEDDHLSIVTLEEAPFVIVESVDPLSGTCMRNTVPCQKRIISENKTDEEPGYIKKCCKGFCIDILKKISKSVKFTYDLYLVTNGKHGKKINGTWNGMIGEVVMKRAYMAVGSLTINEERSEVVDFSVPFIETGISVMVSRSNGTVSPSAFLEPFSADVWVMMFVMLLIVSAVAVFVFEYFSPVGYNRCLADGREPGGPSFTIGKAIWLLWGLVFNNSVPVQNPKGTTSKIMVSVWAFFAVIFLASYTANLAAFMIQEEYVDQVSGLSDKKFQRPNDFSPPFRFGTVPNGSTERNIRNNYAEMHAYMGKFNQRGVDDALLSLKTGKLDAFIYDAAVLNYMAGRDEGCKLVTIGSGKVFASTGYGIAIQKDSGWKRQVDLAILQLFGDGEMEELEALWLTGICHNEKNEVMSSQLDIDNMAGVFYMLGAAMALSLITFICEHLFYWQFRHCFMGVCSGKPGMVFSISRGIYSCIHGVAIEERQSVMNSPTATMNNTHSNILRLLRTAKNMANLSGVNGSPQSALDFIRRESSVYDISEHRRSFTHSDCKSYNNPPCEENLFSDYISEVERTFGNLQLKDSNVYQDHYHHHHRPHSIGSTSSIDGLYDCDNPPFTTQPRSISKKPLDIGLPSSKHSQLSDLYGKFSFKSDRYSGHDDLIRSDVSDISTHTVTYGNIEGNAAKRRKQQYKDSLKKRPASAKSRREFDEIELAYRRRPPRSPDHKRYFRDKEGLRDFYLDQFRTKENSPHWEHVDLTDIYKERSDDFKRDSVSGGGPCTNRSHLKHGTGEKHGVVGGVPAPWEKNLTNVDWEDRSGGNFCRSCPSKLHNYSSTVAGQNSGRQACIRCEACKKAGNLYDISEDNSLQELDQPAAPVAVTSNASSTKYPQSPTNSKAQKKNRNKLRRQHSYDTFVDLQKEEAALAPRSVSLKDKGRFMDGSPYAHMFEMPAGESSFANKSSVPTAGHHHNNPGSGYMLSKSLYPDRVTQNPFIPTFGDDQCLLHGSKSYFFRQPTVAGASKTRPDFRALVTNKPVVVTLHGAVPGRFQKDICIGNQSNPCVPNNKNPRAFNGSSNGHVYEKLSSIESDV

“TAT-EE3: membrane permeable disrupting peptide, sequence YGRKKRRQRRREEDTDSSEEMLALAEE (SEQ ID NO: 4)” was tested, and the NMDAR current amplitude was “significantly smaller than that in cells treated with TAT-SC”.

Source: US20250235501A1, “Methods and Compositions for Treating or Preventing Neurological Injury or Neurological Disorders” (University of Connecticut, priority 2024, published 2025)
